Molecular target: T1, GFP-MG53 (GFP fused to the amino-terminus of full-length mouse MG53) (mouse, UniProt Q1XH17 1-477)
T1 sequence: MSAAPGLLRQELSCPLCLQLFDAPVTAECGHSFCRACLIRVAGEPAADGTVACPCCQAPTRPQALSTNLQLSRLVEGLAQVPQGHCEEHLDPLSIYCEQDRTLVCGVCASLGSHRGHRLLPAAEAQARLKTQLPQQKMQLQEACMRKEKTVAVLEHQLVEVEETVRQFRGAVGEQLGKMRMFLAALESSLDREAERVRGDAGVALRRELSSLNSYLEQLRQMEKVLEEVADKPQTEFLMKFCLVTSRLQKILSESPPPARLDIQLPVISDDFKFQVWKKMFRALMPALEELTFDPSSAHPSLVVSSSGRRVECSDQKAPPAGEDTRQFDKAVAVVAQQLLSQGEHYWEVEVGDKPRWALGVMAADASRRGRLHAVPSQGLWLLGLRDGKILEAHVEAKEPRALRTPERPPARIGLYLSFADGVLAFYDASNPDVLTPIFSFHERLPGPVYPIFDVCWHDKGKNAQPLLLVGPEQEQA
Test: cell-based or functional assay

- reduction in the appearance of filapodia-like structures (C2C12 myoblasts transfected with caveolin-3 and GFP-MG53 in a ratio of 10:1): 82%
B1: caveolin-3 (recombinant, expressed from pcDNA-Cav-3) (other)
chain: MMAEEHTDLEAQIVKDIHCKEIDLVNRDPKNINEDIVKVDFEDVIAEPVGTYSFDGVWKVSYTTFTVSKYWCYRLLSTLLGVPLALLWGFLFACISFCHIWAVVPCIKSYLIEIQCISHIYSLCIRTFCNPLFAALGQVCSSIKVVLRKEV
